B1: COVIC-148 (antibody, V domains shown)
VH: QVQLVQSGAEVKKPGASVKVSCKASGYTFTSYDINWVRQATGQGLEWMGWMNPNSGNTGYAQKFQGRVTMTRDTSINTAYMELSSLRSEDTAVYFCARGGRYCSDVTCYSGEPFDYWGQGTLVTVSS
VL: EIMLTQSPDFQSVTPKEKVTITCRASQSIGSSLHWYQQKPDQSPKLLIKFASQSISGVPSRFSGSGSGTDFTLTINSLEAEDAAAYYCHQSSSLPHTFGPGTKVEIKR
B2: COVIC-334 (antibody, V domains shown)
VH: QMQLVQSGPEVKKPGTSVKVSCKASGFTFSSSAVQWVRQARGQGLEWIGWIVVGSGNANYAQKLQERVSITRDMSTSTAYMELSSLRPEDTAVYYCAAPHCSRTICHDGFDMWGQGTMVTVSS
VL: EIVLTQSPGTLSLSPGERATLSCRASQSVRSSYLAWYQQKPGQAPRLLMFVASSRATGIPDRFSGSGSGTDFTLTISRLEPEDFAVYYCQQYDTSPWTFGQGTKVEIK
B3: COVIC-338 (antibody, V domains shown)
VH: EVQLVESGGGLVQPGRSLRLSCAASGLTFEDYAMHWVRQPPGKGLEWVSGVSWNSGTIGYADSVKGRFTISRDNAKNSLYLHMRSLGAEDTAMYYCAKDMGGRFSFFSLENDAFDIWGQGTMVIVSS
VL: SYELTQPPSVSVSPGQTARITCSGDALPKQSTYWYQQKPGQAPVLVIYKDIERPSGIPERFSGSSSGTTVTLTISGVQAEDEADYYCQSADSSDTYVFGTGTKVTVL
B4: COVIC-56 (antibody)
chain 1: not shown
chain 2: QVQLQESGGGLVQAGGSLRLSCAASGRTFSEYAMGWFRQAPGKEREFVATISWSGGSTYYTDSVKGRFTISRDNAKNTVYLQMNSLKPDDTAVYYCAAAGLGTVVSEWDYDYDYWGQGTQVTVSSGGGGSGGGGSKRTVAAPSVFIFPPSDEQLKSGTASVVCLLNNFYPREAKVQWKVDNALQSGNSQESVTEQDSKDSTYSLSSTLTLSKADYEKHKVYACEVTHQGLSSPVTKSFNRGEC
B5: COVIC-94 (antibody, V domains shown)
VH: EVQLVESGGGLVQPGGSLRLSCAASGFTFSPSWMGWFRQAPGKEREFVATINEYGGRNYADSVKGRFTISADNSKNTAYLQMNSLKPEDTAVYYCARVDRDFDYWGQGTLVTVSS
B6: COVIC-267 (antibody, V domains shown)
VH: EVQLVESGGGLVQPGGSLRLSCTVSGFSLSSYAMSWVRQAPGKGLEWIGIIGNSGNTYYASWAKGRFTISRDNSKNTLYLQMNSLRAEDTAVYYCARNWDPDSYEYTYATNSFDPWGQGTLVTVSS
VL: DIQMTQSPSSLSASVGDRVTITCQASESISSYLAWYQQKPGKAPKLLIYRASTLESGVPSRFSGSGSGTDFTLTISSLQPEDFATYYCQCTYGSSSSGSYGNAFGGGTKVEIK
B7: COVIC-303 (antibody, V domains shown)
VH: QVTLKESGPVLVKPTETLTLTCTVSGFSLSNARMGVSWIRQPPGKALEWLAHIFSNGEKSYSTSLKSRLTISKDTSKSQVVLTMTNMDPVDTATYYCARTLDYYDSSGYLVGGAFDIWGQGTMVTVSS
VL: QPGLTQPPSVSLAPGQTARITCGGNNIGSKSVHWYQQKPGQAPVLVVYDDSDRPSGIPERFSGSNAGNTATLTISRVEAGDEADYYCQVWDSRSDQYVFGTRTKLTVLG
B8: COVIC-260 (antibody, V domains shown)
VH: QVQLQESGPGLVKPSETLSLTCSVSGDSISSSDYSWGWIRQPPGKGLEWIGTIYYIKNTYYNPSLRSRVTLSVDTSKNLFSLKLSSVTAADTAVYYCARERPPFDVVVVPAARPYNWFDPWGLGTLVIVSS
VL: QSVLMQPPSVSGAPGQRVTISCTGSSSNIGAGYDVHWYQQLPGTAPKLLIYGNNNRPSGVPDRFSGSKSGTSASLAITGLQADDEADYYCQSYDSSLSGSKVFGGGTKLTVLG
B9: COVIC-96 (antibody, V domains shown)
VH: QVQLVQSGAEVKKPGSSVKVSCKASGGTFSTSTISWVRQAPGQGLEWMGGIIPLFGSPNYAQKFQGRVTITADESTSTAYMELSSLRFEDTAVYYCARLGQWDLLPRWGQGTLVTVSS
VL: EIVLTQSPGTLSLSPGERATLSCRASQSVSSSYLAWYQQKPGQAPRLLIYGASSRASGTPDRFSGRGSGTDFTLTISRLEPEDFAVYYCQQYGSSYTFGQGTKLEIK
B10: COVIC-300 (antibody, V domains shown)
VH: EVQLVESGGGLIQPGGSLRLSCAASGFIVSSNYMSWVRQAPGKGLEWVSVIYSGGITYFADSVKGRFTISRDISKNTLYLQMNSLRAEDTAVYYCARDRRLPHYYYGLDVWGQGTTVTVSS
VL: QSVLTQPASVSGSPGQSITISCTGTSSDVGGYNYVSWYQQHPGKAPTLIIYEVTSRPSGVSNRFSGSKSGNTASLTISGLQAEDEADYYCSSYTTSNTLGGVFGTGTKVTVL
B11: COVIC-301 (antibody, V domains shown)
VH: EVQLVESGGGLIQPGGSLRLSCAASGVTVSSNYMSWVRQAPGKGLEWVSIIYPGGSRFYADSVKGRFTISRDNSKNTLYLQMNSLRAEDTAVYYCAREVRGWLDPWGQGTLVTVSS
VL: DVVMTQSPSFLSASVGDRVTITCRASQGISNYLAWYQQKPGKAPKLLIYASSTLQSGVPSRFSGSGSGTEFTLTISSLQPEDFATYYCQHLNSYPHFGQGTRLEIKR
B12: COVIC-361 (antibody, V domains shown)
VH: EVQLVESGGGLVQPGGSLRLSCKASGISVAPHAVTWVRQAPGKGLEWIGVIASNADTYYASWAKGRFTISRDNSKNTLYLQMNSLRAEDTAVYYCARHPGSAGYGYTYYYAMDPWGQGTLVTVSS
VL: DIQMTQSPSSLSASVGDRVTITCQASQDVKYAINWYQQKPGKAPKLLIYGTSSRGEGVPSRFSGSGSGTDYTLTISSLQPEDFATYYCQQGYVVSIFFGGGTKVEIK
B13: COVIC-259 (antibody, V domains shown)
VH: EVQLVESGGGVVQPGRSLRLSCAASGFTFSSYAMHWVRQAPGKGLEWVAVLSYDGSNKYNADSVKGRFTISRDNSKNTLYLQMNSLRVEDTAMYYCARDGVSVTMVRGVIGPLCDYWGQGTLVTVSS
VL: not shown
B14: COVIC-157 (antibody, V domains shown)
VH: EVQLVESGGGLIQPGGSLRLSCAASGFTVSSNYMNWVRQAPGKGLEWVSVIYSGGSTYYADSVKGRFTISRDNSKNTLYLQMNSLRTEDTAVYYCARDLVAYGMDVWGQGTTVTVSS
VL: DIQLTQSPSFLSASVGDRVTITCWASQGISSYLAWYQQKPGKAPKVLIYAASTLQSGVPSRFSGSGSGTEFTLTISSLQPEDFATYYCQLLNSNPLTFGGGTKVEIKR
B15: COVIC-150 (antibody, V domains shown)
VH: EVQLVESGGGLIQPGGSLRLSCAASGVTVSSNYMSWVRQAPGKGLEWVSVIYSGGSTFYADSVKGRFTISRDNSKNTLYLQMNSLRAEDTAVYYCARDLSYYGMDVWGQGTTVTVSS
VL: DIQLTQSPSFLSASVGDRVTITCWASQGISSYLAWYQQKPGKAPKLLIYAASTLQSGVPSKFSGSGSGTEFTLTISSLQPEDFATYYCQQLNSYPSSFGQGTKLEIKR
B16: COVIC-298 (antibody, V domains shown)
VH: EVQLVQSGAEVKKPGESLKISCQGSGFSFSNYWIGWVRQMPGKGLEWMGIIYPDDSDTRYSPSFQGQVTISADKSISTAFLQWSSLKASDTAMYYCATRTGWTNDAFDIWGQGTMVTVSS
VL: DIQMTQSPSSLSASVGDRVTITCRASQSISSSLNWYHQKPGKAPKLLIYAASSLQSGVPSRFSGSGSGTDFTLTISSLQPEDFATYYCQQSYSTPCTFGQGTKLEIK

The target of this assay is SARS-CoV-2 spike RBD (Wuhan-Hu-1) (Severe acute respiratory syndrome …, UniProt P0DTC2). In words: SPR. (In general: Surface plasmon resonance follows binding to a sensor surface in real time, without labels.)
As a reminder, the Kd is the equilibrium constant for the complex coming apart. B1: the affinity, expressed as Kd, was 1.85 nM.

The molecule B2 gave a Kd of 0.0568 nM. In the case of B3 it was 0.00664 nM; in that of B4, 94.2 nM; in that of B5, 5.62 nM. In the case of B6 it was 1.95 nM. As for B7, the Kd worked out at 0.168 nM. The molecule B8 yielded a Kd of 0.0696 nM. In the case of B9 it was 92.2 nM; in that of B10, 1.13 nM. As for B11, the figure is 1.55 nM; as for B12, 0.0241 nM. In the case of B13, the Kd was 2.1 nM. Compared with the last molecule, the Kd is about 87-fold higher. On to B14, for which binding was characterised by a dissociation constant (Kd) of 6.65 nM. Against the preceding molecule, the Kd is about 3.2-fold higher. In the case of B15 it was 141 nM; in that of B16, 0.629 nM.

The values are drawn from publication PMC12014896 (2025).
